In data set [1] the test system is EBC-1 (human lung squamous cell carcinoma) xenograft. Description: EBC-1 xenograft tumor growth inhibition. It counts as in vivo. To be noted: 10 mg/kg/day IP QDx1, SCID-bg mice.
Data set [2] is described as follows: Percent aggregates of ADC by size exclusion chromatography. It counts as physicochemical. To be noted: chAb3-CZ DAR2, DAR4 and broad DAR species (Table 12). An excerpt: Procedures for DAR and percent aggregate determination are described above in Example 5.

Marks after values point to notes of the source that are not given here.

B1: ChAb3- CZ-DAR2 (conjugate)
VH: EVKLVESGGGLVQPGNSLRLSCATSGFTFIDYYMSWVRQSPGKALEWLGFIRNKANGYTTEYSASVKGRFTISRDNSQSILYLQMDTLRAEDSATYYCTRDRPAWFVYWGQGTLVTVSA
VL: DIVMSQSPSSLAVSVGEKVTMSCKSSQSLLYSSNQKNYLAWYQQKPGQSPKLLIYWASTRESGVPDRFTGSGSGTDFTLTFSSVRAEDLAVYYCQQYYSYPYTFGGGTKLEIK
With B1, in data set [1], the “Growth Inhibition TGD (%)” value is 32* %, the “Growth Inhibition TGImax (%)” value is 55* %, the “Response Frequency CR (%)” value is reported as 0% and the “Response Frequency OR (%)” value stood at 0%. In addition, the “Response Frequency PR (%)” value in data set [1] was 0%. In data set [2], the “% Aggregates by SEC” value was 0.5%.

B2: ChAb3- CZ-Broad DAR (conjugate)
VH: EVKLVESGGGLVQPGNSLRLSCATSGFTFIDYYMSWVRQSPGKALEWLGFIRNKANGYTTEYSASVKGRFTISRDNSQSILYLQMDTLRAEDSATYYCTRDRPAWFVYWGQGTLVTVSA
VL: DIVMSQSPSSLAVSVGEKVTMSCKSSQSLLYSSNQKNYLAWYQQKPGQSPKLLIYWASTRESGVPDRFTGSGSGTDFTLTFSSVRAEDLAVYYCQQYYSYPYTFGGGTKLEIK
As for B2, in data set [2], the “% Aggregates by SEC” value is listed as 12.2%.

Source of the values: patent publication US20230135723A1, “ANTI-CD98 ANTIBODIES AND ANTIBODY DRUG CONJUGATES” (AbbVie Inc., priority 2016, published 2023).
